From US20130059388 come the findings set out here.

In series [1] the test system is MAPRE3 ZFN of pair 31/32 (second) (synthetic). Briefly: cell_activity. To be noted: Cel-1 efficiency of ZFN pair 31/32; no productive tag integration.
Series [2] has as its system MAPRE3 ZFN of pair 31/32 (first) (synthetic). The series is described as follows: cell_activity. To be noted: Cel-1 efficiency of ZFN pair 31/32; no productive tag integration.

For the sequence “AGGAAGGATTCGCAC (double strand) [MAPRE3 half-site 2]”, the activity in series [1] came out at 21%.

On to “TTCCTCTCTCTCCCAC (double strand) [MAPRE3 half-site 1]”, for which the activity in series [2] came to 21%.
